Assay results taken from paper PMC10478522.

How the values were obtained:
[1] = molecular target: AcrIC9 from Rhodobacter capsulatus (Rhodobacter capsulatus); assay: SEC-MALS; purified AcrIC9 alone on Superdex 200 Increase 10/300 GL, 20 mM Tris-HCl pH 8.0, 150 mM NaCl, room temperature; dimer to monomers
[2] = molecular target: type IC cascade from Neisseria lactamica with crRNA (Neisseria lactamica); assay: SPR; BIAcore T200; NlaCascade/crRNA complex captured on a Ni-loaded NTA chip (711-826 RU); AcrIC9 injected in twofold dilutions from 125 nM at 30 ul/min, 120 s contact, 240 s dissociation; 25 °C; HBS-P buffer (0.01 M HEPES pH 7.4, 0.15 M NaCl, 0.005% Surfactant P20); 1:1 binding model
[3] = molecular target: type IC cascade from Neisseria lactamica (NlaCascade/crRNA complex) (Neisseria lactamica); assay: SPR; BIAcore T200, NlaCascade/crRNA complex captured on a Ni-NTA chip (711-826 RU), AcrIC9 injected in twofold dilutions from 125 nM (8 to 125 nM), HBS-P buffer (0.01 M HEPES pH 7.4, 0.15 M NaCl, 0.005% P20), 25°C, 1:1 binding model

stoichiometry N [1]: 2
Kd [2]: 0.0432 µM
koff [2]: 0.00404 s⁻¹
kon [2]: 93500 M⁻¹ s⁻¹
Kd [3]: 0.00432 µM
B1: AcrIC9 from Rhodobacter capsulatus (natural protein)
chain: METKMTSFYKITAYNSQALYFWGTDADVDRYVDWLNRDREINVYAAEAIPEAEWAQYEGRDDVLSGEECGWDDFMSAEA
